Experimental findings from paper PMC3565344, “Gamma-Aminobutyric Acid Production Using Immobilized Glutamate Decarboxylase Followed by Downstream Processing with Cation Exchange Chromatography” (International Journal of Molecular Sciences, 2013) are described below.

“And” between values parts separate entries of the source, which are not always exact repeats. Equal entries are not always repeated.

This data set concerns the molecule itself. Nature of the data set: SEC; size exclusion HPLC on TSKgel G3000SW; 20 uL purified GAD injected; isocratic elution at 1 mL/min for 30 min; 0.1 M sodium sulfate in 0.1 M phosphate buffer, pH 6.8; mix of monomer, dimer and tetramer. On the technique in general: SEC sorts molecules by how far they enter the pores of the column.

B1: Escherichia coli glutamate decarboxylase fused to six histidine at its C-terminus (enzyme, E. coli, UniProt P69910 1-466, looked up)
chain: MDKKQVTDLRSELLDSRFGAKSISTIAESKRFPLHEMRDDVAFQIINDELYLDGNARQNLATFCQTWDDENVHKLMDLSINKNWIDKEEYPQSAAIDLRCVNMVADLWHAPAPKNGQAVGTNTIGSSEACMLGGMAMKWRWRKRMEAAGKPTDKPNLVCGPVQICWHKFARYWDVELREIPMRPGQLFMDPKRMIEACDENTIGVVPTFGVTYTGNYEFPQPLHDALDKFQADTGIDIDMHIDAASGGFLAPFVAPDIVWDFRLPRVKSISASGHKFGLAPLGCGWVIWRDEEALPQELVFNVDYLGGQIGTFAINFSRPAGQVIAQYYEFLRLGREGYTKVQNASYQVAAYLADEIAKLGPYEFICTGRPDEGIPAVCFKLKDGEDPGYTLYDLSERLRLRGWQVPAFTLGGEATDIVVMRIMCRRGFEMDFAELLLEDYKASLKYLSDHPKLQGIAQQNSFKHT
notes: glutamate decarboxylase (GAD, EC 4.1.1.15) of E. coli, gene amplified from genomic DNA (GenBank M84025); The reverse primer puts an XhoI site (CTCGAG, would encode Leu-Glu) between the last GAD codon and the six histidines; this is my reading of the primer; also called GAD; EGAD; source: E. coli BL21 (DE3), purified (HisTrap HP, buffer exchange on Sephadex G-25); not shown: His6, C-terminal, kept
On to B1, for which the “stoichiometry N” value is 2 and 4.

As usually defined, the stoichiometry N is a count of units in the complex or per binding partner.
